Consider 23 sequences from the DeepSol protein solubility set.

A short description of this data set: soluble on expression in E. coli; label from the status in PepcDB or PDB records.
For the sequence “KEENNFINLYTVKNPLKCKIVDKINLVRPNSPNEVYHLEINHNGLFKYLEGHTCGIIPYYNELDNNPNNQINKDHNIINTTNHTNHNNIALSHIKKQRCARLYSISSSNNMENLSVAIKIHKYEQTENAPNITNYGYCSGFIKNLKINDDIYLTGAHGYFNLPNDAIQKNTNFIFIATGTGISPYISFLKKLFAYDKNNLYNRNSNYTGYITIYYGVYNEDSILYLNELEYFQKMYPNNINIHYVFSYKQNSDATSFYVQDEIYKRKTEFLNLFNNYKCELYICGLKSIRYKVMDILKSHDQFDEKKKKRVHVEVY”, the “soluble on expression in E. coli” value is “soluble”.
For the sequence “KEKFNYYIGANIAADKNEVTKITLGGQNLMISGYSAHGAGGRGINMFAEGHPMSYFNLIETDGLFRSAEEIANYKNKDGELIQPAAQVGDVRYKDWNGDGKINTDDQHDVGSPFPDFTFGIRLGGEWNNFDFNLFFDGMVGNKIYNYPRYRLESGNFNGNMSTVLANSWRPDNQNTDIPRFSKTDGADNKWAYTDRWLEDGSYIRLKTLDIGYTLPKVLTKKIKLENVRIYTSMENLFTLTKYSGYTPDLGESSVAGVAYNVFSRGIDQGRYPLPRTISFGIQVNL”, the “soluble on expression in E. coli” value is “not soluble”.
Take “KELKDSYVEYTLLYDMIANRIGIDEVVAENGTLRLMKNQVWAYDSLPHMLIAGGTGGGKTYFLLTIIEALLKSDAELFILDPKNADLADLGTVMPHVYSQKEEISACVEDFYERMIARSKAMKEMPNYKPGENYAYLGLPPNFLIFDEYVAYMGANRFPTS”: the “soluble on expression in E. coli” value is on record as “not soluble”.
With “KEMKYVVDTSVVISGRVTEMLESGEIKGTIIVPEAVMAELEAQANFGKMTGFQGLSEIEKLTKLAKDKGFEVIFAGERPKLEHIRLAKGGEIDNLIREVAAEFDAVLVTSDRVQHLVARAKGIETIYVRPRVVRPENTRIMSFFTP” the entry was “not soluble”; with “KGGWFGKHRGQGGSNPKFENIAEGLRALLARSHVERTTDEGTWVAGVFVYGGSKTSLYNLRRGTALAIPQCRLTPLSRLPFGMAPGPGPQPGPLRESIVCYFMVFLQTHIFAEVLKDAIKDLVMTKPAPTCNIRVTVCSFDDGVDLP”, “soluble”.
Turning to “KGNEFEDYCLKRELLMGIFEMGWEKPSPIQEESIPIALSGRDILARAKNGTGKSGAYLIPLLERLDLKKDNIQAMVIVPTRELALQVSQICIQVSKHMGGAKVMATTGGTNLRDDIMRLDDTVHVVIATPGRILDLIKKGVAKVDHVQMIVLDEADKLLSQDFVQIMEDIILTLPKNRQILLYSATFPLSVQKFMNSHLEKPYEIN”, the “soluble on expression in E. coli” value is recorded as “soluble”.
In the case of “KKDFTWKTNLTFSLNRNKIVDLYGDKKDDLANRWFIGQPMKVIYDLEKVGIWQTEDKELAAKYGQVPGHIRVADLDENYVIDERDYKVLGSPSPDWTAGMTNTFTYKNWDLSFYMYARIGGTYNDDFTYMFTAWDNEHWNKLNVKYWTPENHSNEYQQIGAQSYHTQVLGKISGSFLKIQNITLGYTLPENWMKKMKMKNARAYINVQNPFTFTDYLGPDPETIGEDVYKSLSLYPMTFTFGVNLTF”, the “soluble on expression in E. coli” value is on record as “not soluble”.
The entry for “KKDFTWSSTVTFTANKEKIKSLIEGQDMMFNAKKGDMVFKVGEGVGSFYRYKVLGIWQYSEKETAALFGCEPGDIKLDLPSVKKDGNGYYYMNPEGERVDITAENPYGVRADYDRQVIGRNTPDWTLGFKNNFRYKDFDLSVFLYARWGQMMNYGSVIGKYSPNPDYNIPTYFTYYDKTIEADQDVLFYAIDKSKDRSAYEGYDSMYYVDGSFFKLKNVTLGYTLPGKLTKRFGISNLRVYATMTNLFTYSPNKYVKNYDPEMNGSINFPLSRDCIFGLNLTF” is “not soluble”; for “KKIIHELLDDILFFETAPTIHKVILHGKNRQVEFYGKLKSIEKMLDESFYRCHRSYIVNKKNIHELDTTKGVVKMSNGENCYASSKLIKSLSL” it is “not soluble”; for “KKVCACPKILKPVCGSDGRTYANSCIARCNGVSIKSEGSCPTGI” it is “soluble”.
With “KKVVFFGVGAVGATFAEQFFNSKYDFKILCDNERKKRYLEEGFIINGKRYDFDYVTKDEYKQEADFIIIGLKYNNLKENIKELDGLVGKNTVIMSLLNGVDSEEIIGERFGIEKMVYSYVTNIDAKKINNNIIHTTNGIIVFGNKDNSEDRKTNIITEVFDDVNIEYTLSKDIQRDMWWKYMVNI”, the “soluble on expression in E. coli” value is given as “not soluble”.
With “KLEAMKEAEGKEPSETDIKPKRIEEPVLKGFAAPAQTAPAPVSKPAPVAKKKEVEQEAKPGLFSRLFKALGSFLFGGSEEVKEEPKQEEKKSNRDNKRNKRDRNDRRRSNQRDNREGRENRDNRRRRKPREEQANEQNEAQQPANKQQPNRSQKRKPKPQQAEKAQEPKANAKVAEKGLQLAAEARSEVKPEENKAKANAKTEKVKERRQRRKLNKSVRVKDQLADEQVEETAVKAIEPVESQVDQAVDTAADAQQDNKQGESKQRRNRRSPRHLRASGQRRRRGRDRRPNPFRLRKGGVASPEMAMGKVMPRYIPKPAPKKEERVQEETVVAIATVPAMQGGFACPEMAMGKVIIRREQPAVAEAPVVEPKVQETVEAKAESPIVEAVAPEKAEPVAVDQAPVEPIVEVAEAPVAEATTETVVEEAPVQEPVVAETVEEAATEVAVETPVAAPEMKAEVINVVAKPRASAPMTKAPGPQELREIEVAAAPFKAERYQAKGAGSQVATNRASAAMTKPNFN” the entry was “not soluble”; with “KLKSVEKKLSESESRLELALEAANMGTWSWNIKRNEIFWSEQVLYIFGIKPEEFKGDFESYLNLIPSNERVQVEEYITNVLAKLQKEFFFDHSIQTPSGVKKRVYCKGKLYADHAGMPDSMTGVVLDVT”, “not soluble”.
The entry for “KMAHIGSWKWDIVTGELYWSDELYLIFGLDPQEFRPAYNSFFNYIHPGDRDFVDNAIKKALNGEQLYDNDHRIISADGEERIVHSHGEVIFDEKNTPVRMRGTLQDIT” is “not soluble”; for “KNYDLIFGDSNTKKYYAQFAKEHKTHLYHQILQSNDEQFRFVENDQTVTSQTPFKS” it is “not soluble”; for “KRMYNREKLRKLFDKEETPEVTGLKDNQERFFTYSIRAAHMNINTKSNIKVLKNGEETFPDIFKAMRKAESYIHIEYYMFKSDMLGRGMMDIMMEKARQGVEVRFLYDAAGSMKLARRDIMRMKQAGVDIVPFSPLKYGFFNQKLNFRNHRKIVIIDGKTGFVGGLNVGKEYISRDPYIGFWRDTHLRLEGEIVQTLHAIFMLDWEYVSNEVLIDQEEYNTPVPVEGGGIYQIVATGPDMKESMSDLYYEMISSAQKSIWIATPYFVPNESIRTALKAAATKGVEVRVMVPEKNDSFLTQYASRSYFPELLLEGIEVYSYQKGFMHQKVMIIDGDLASVGTANMDMRSFQLNFEVNVFFTDAEAIRTLEAHFEEDMQESEKLSPVGFYKRGVADR” it is “not soluble”.
Consider “KRRLEVKGEVNSITVYDDFAHHPEAILATLTALRDKVGGGVRILAVLEPRSNTMKMGVHKDDIAPALGRADAVFMLQPEQLSWEVADIANQCVQPAYWNANLDRLVDMIVAKAQPTDHILVMSNGSFGGIHQKILDKLKLK”, for which the “soluble on expression in E. coli” value is recorded as “not soluble”.
In the case of “KVIAGLYQRAFQHLSEAVQAAEEEAQPPSWSCGPAAGVIDAYMTLADFCDQQLRKEEENASVIDSAELQAYPALVVEKMLKALKLNSNEARLKFPRLLQIIERYPEETLSLMTKEISSVPCWQFISWISHMVALLDKDQAVAVQHSVEEITDNYPQAIVYPFIISSESYSFKDTSTGHKNKEFVARIKSKLDQGGVIQDFINALDQLSNPELLFKDWSNDVRAELAKTPVNKKNIEKMYERMYAALGDPKAPGLGAFRRKFIQTFGKEFDKHFGKGGSKLLRMKLSDFNDITNMLLLKMNKDSKPPGNLKECSPWMSDFKVEFLRNELEIPGQYDGRGKPLPEYHVRIAGFDERVTVMASLRRPKRIIIRGHDEREHPFLVKGGEDLRQDQRVEQLFQVMNGILAQDSACSQRALQLRTYSVVPMTSSDPRAPPCEYKDWLTKMSGKHDVGAYMLMYKGANRTETVTSFRKRESKVPADLLKRAFVRMSTSPEAFLALRSHFASSHALICISHWILGIGDRHLNNFMVAMETGGVIGIDFGHAFGSATQFLPVPELMPFRLTRQFINLMLPMKETGLMYSIMVHALRAFRSDPGLLTNTMDVFVKEPSFDWKNFEQKMLKKGGSWIQEINVAEKNWYPRQKICYAKRKLAGANPAVITCDELLLGHEKAPAFRDYVAVARGSKDHNIRAQEPESGLSEETQVKCLMDQATDPNILGRTWEGWEPWM”, the “soluble on expression in E. coli” value was “soluble”.
Turning to “KVNNIMKKLLSSMILIWGGLISFSNNITGPRHRIEISAGFINDRQNATMGNNIFISNSISYIPEWKIQVNKKFDVTFGPKVVLNFSNFITVSNGTAKAASSSNNANPVTITPSLILGGELDFNYSVKENLKIYTGLEVGTGIGFQISTVGSNVQNPEFRTSSKIALGVKINEKYNIAIYTADIKGLLGLEAGYTF”, the “soluble on expression in E. coli” value is “not soluble”.
For the sequence “KYSLLEIGLKKDNGSSETIKLKREAIKFENNTVKSYIIKDAKKIGYISIPSFYSDDSNPNALGAANELSKEILKLKNENIEGLIIDLRNNGGGSLYEAVGMSGLFIDIGPLFYVLERSGKATLTKDMNRGTVYDGPLCIMVNGYSASASEIFSAAMQDNHRALIVGEQTYGKATGQSISQLDTTKSISTFSATDNMGATKITEIKLYRTSGFSYQGKGVTPDIILPYL”, the “soluble on expression in E. coli” value is “not soluble”.
With “LADSSDVTEVENYMKANYDVPNNVYFGKAEGKNVIYVSLESLQSFIIDYKIDGKEVTPFLNKLAHDNETFYFDNFFHQTGQGKTSDAEFMMENSLYPLAQGSVFVNKAQNTLQSVPAILKSKNYTSATFHGNTQTFWNRNEMYKAEGIDKFFDSAYYDMNEENTKNYGMKDKPFFKESMPLLESLPQPFYTKFITLSNHFPFGMDEGDTDFPAGDFGDSVVDNYFQSAHYLDQSIEQFFNDLKKDGLYDKSIIVMYGDHYGISENHNKAMAKVLGKDEITDYDNAQLQRVPLFIHAAGVKGEKVHKYAGDVDVAPTILHLLGVDTKDYLMSGSDILSKEHREVIPFRNGDFISPKYTKISGKYYDTKTGKELDESEVDKSEDSLVKKELEMSDKIINGDLLRFYEPKGFKKVNPSDYDYTKHDEDSSETSKDNEDK” the entry was “soluble”; with “LAELFEKAAAHLQGLIQVASREQLLYLYARYKQVKVGNCNTPKPSFFDFEGKQKWEAWKALGDSSPSQAMQEYIAVVKKLDPGWNPQIPEKKGKEA”, “soluble”; with “LDDKTGLGTILNPQATYFDYQATQSGAGSFNYTVKGDNLTATSQIVLAVNAGETPGNNIPVADNITLSTFNNVDAIIDLSAYITDADGDTLRINKLVSASNRFTLNGFQVTFAPDGFVGVDQAVYSVDDGRGGYALAYIVVTSNDANPPAPNTAPVAKDDSLSMDVAKQSVLNINLSGLISDADGDSLKVVTLYSHNDRAVLKENASVDYTPGNFRGVDQFTYLVSDGKGGYDLGTVTVTVGDSTPPTPPTPSLVAYQQAFVLDVDQLQTIDVTQSVTSEHLDAWSLTTVQDSTNLGVVSAKTATTFNYLAQTPGVAQIDYSVQGGSLSANSTITVAINAPVTPDNHRPEAQDTQLETLNNASKTIDLQGKISDVDGDTLSITLHGSARFSLNGTQVTFTPNGFVGLDQAVYSVEDGKGGYALANIVAISEDANPPVPNMAPTANDAQFTLDVAKNVTFNIDLVAQRLIADADGDALSIAHIYTANNRATKQGATGITYTPGAFRGVDQFTYVITDGKDGYAINAITVVVNDSTPANKIPTAGPVTAKMLHNDPAITISVNSAVSDADGDTLKIVSISGALGQASINPANALEMLYEPKGFVGTDRFVYVVSDDNGGYAMGEVTVTVTDSNPTAPVANTVQENTLLDTPINIDLSAYISDKETETANLVISNVTNATSPAVATLSGQTVIYTPNGFTGNDILTYTVTDGRH”, “not soluble”.
